Source: patent publication US20120135923A1, “Use of Melanocortins to Treat Dyslipidemia” (IPSEN PHARMA, S.A.S., priority 2009, published 2012)
Bridge positions count the residues as written; N and C are the ends. Square brackets hold non-standard residues; d marks the D form. 1Nal = N[C@@H](Cc1cccc2ccccc12)C(=O)O; 2Nal = N[C@@H](Cc1ccc2ccccc2c1)C(=O)O; d2Nal = N[C@H](Cc1ccc2ccccc2c1)C(=O)O

Legend:
Assay in all cases: cell-based or functional assay
hMC5-R (human) = hMC5-R (human) (UniProt P33032)
Chain of hMC5-R (human) (P33032 whole entry): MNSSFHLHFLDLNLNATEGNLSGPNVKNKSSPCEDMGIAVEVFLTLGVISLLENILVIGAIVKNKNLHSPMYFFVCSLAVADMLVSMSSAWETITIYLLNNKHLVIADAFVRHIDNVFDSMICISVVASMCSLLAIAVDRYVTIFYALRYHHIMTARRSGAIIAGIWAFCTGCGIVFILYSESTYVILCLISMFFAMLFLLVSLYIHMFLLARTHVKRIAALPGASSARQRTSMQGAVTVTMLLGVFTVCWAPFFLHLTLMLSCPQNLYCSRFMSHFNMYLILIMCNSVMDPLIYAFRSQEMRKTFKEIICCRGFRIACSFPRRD

hMC3-R (human) = hMC3-R (human) (UniProt P41968)
Chain of hMC3-R (human) (P41968 whole entry): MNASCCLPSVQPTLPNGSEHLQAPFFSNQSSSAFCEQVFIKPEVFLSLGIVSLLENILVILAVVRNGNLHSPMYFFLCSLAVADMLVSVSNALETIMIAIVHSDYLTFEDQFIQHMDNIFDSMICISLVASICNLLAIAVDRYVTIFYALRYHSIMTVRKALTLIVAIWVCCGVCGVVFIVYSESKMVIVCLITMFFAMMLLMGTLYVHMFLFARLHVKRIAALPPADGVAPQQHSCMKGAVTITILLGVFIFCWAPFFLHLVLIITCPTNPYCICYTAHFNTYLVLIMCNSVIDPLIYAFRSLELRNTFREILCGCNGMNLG

hMC4-R (human) = hMC4-R (human) (UniProt P32245)
Chain of hMC4-R (human) (P32245 whole entry): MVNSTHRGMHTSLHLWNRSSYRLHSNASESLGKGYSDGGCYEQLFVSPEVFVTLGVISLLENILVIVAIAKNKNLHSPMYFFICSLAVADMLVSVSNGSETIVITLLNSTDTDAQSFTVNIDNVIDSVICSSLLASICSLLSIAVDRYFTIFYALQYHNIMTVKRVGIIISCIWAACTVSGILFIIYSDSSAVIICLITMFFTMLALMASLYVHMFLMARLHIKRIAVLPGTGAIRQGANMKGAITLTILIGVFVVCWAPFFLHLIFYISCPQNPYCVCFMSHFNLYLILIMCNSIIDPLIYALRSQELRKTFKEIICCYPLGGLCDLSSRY

Row | Substance | cAMP EC50 (hMC5-R (human)) | other results
1 | Ac-Arg-c(Cys-D-Ala-His-D-Phe-Arg-Trp-Cys)-NH2 (peptide; unit assumed) | 1630 nM | –
2 | Ac-CEH[d2Nal]R[1Nal]ACPPKD-NH2 (disulfide 1-8) | 104 nM | –
3 | Ac-CEH[d2Nal]R[2Nal]ACPPKD-NH2 (disulfide 1-8) | 66.9 nM | –
4 | Ac-D-Arg-c(Cys-D-Ala-His-D-Phe-Arg-Trp-Cys)-NH2 (peptide; unit assumed) | 1020 nM | –
5 | Ac-Nle-c(Asp-His-D-2-Nal-Arg-Trp-Lys)-β-Ala-Tyr-Gly-Arg-Lys-Lys-Arg-Arg-Gln-Arg-Arg-Arg-NH2 (peptide; in nM (unit assumed)) | – | cAMP Kb (hMC3-R (human)): 220; cAMP Kb (hMC4-R (human)): 4.07
6 | Ac-Nle-c(Asp-His-D-2-Nal-Arg-Trp-Lys)-β-Ala-β-Ala-Tyr-Gly-Arg-Lys-Lys-Arg-Arg-Gln-Arg-Arg-Arg-NH2 (peptide; unit assumed) | 0.839 nM | –
7 | Ac-Nle-c(Pen-D-Ala-His-D-Phe-Arg-Trp-Cys)-NH2 (peptide; unit assumed) | – | cAMP EC50 (hMC3-R (human)): 1.89 nM; cAMP EC50 (hMC4-R (human)): 0.531 nM
8 | Ac-c(Cys-Glu-His-D-2-Nal-Arg-Bal-Ala-Cys)-Pro-Pro-Lys-Asp-NH2 (peptide; unit assumed) | 177 nM | –
9 | Ac-c(Cys-Glu-His-D-2-Nal-Arg-Trp-Ala-Cys)-Pro-Pro-Lys-Asp-β-Ala-Tyr-Gly-Arg-Lys-Lys-Arg-Arg-Gln-Arg-Arg-Arg-NH2 (peptide; unit assumed) | 38.2 nM | –
10 | Hydantoin(C(O)-(A6c-Nle))-c(Cys-D-Ala-His-D-Phe-Arg-Trp-Cys)-NH2 (peptide; unit assumed) | – | cAMP EC50 (hMC4-R (human)): 1.8 nM
11 | Hydantoin(C(O)-(Ala-Gly))-c(Cys-D-Ala-His-D-Phe-Arg-Trp-Cys)-NH2 (peptide) | 516 nM | –
12 | Hydantoin(C(O)-(Arg-Gly))-c(Cys-D-Ala-His-D-Phe-Arg-Trp-Cys)-NH2 (peptide) | 3560 nM | –
13 | Hydantoin(C(O)-(Arg-Gly))-c(Cys-Glu-His-D-Phe-Arg-Trp-Cys)-NH2 (peptide) | 4010 nM | –
14 | Hydantoin(C(O)-(D-Ala-Nle))-c(Cys-D-Ala-His-D-Phe-Arg-Trp-Cys)-NH2 (peptide; unit assumed) | – | cAMP EC50 (hMC3-R (human)): 2.56 nM; cAMP EC50 (hMC4-R (human)): 1.47 nM
15 | Hydantoin(C(O)-(Gly-Arg))-c(Cys-D-Ala-His-D-Phe-Arg-Trp-Cys)-NH2 (peptide) | 3610 nM | –
16 | Hydantoin(C(O)-(Gly-Arg))-c(Cys-Glu-His-D-Phe-Arg-Trp-Cys)-NH2 (peptide) | 335 nM | –
17 | Hydantoin(C(O)-(Gly-D-Arg))-c(Cys-D-Ala-His-D-Phe-Arg-Trp-Cys)-NH2 (peptide) | 9840 nM | –
18 | Hydantoin(C(O)-(Gly-Gly))-c(Cys-D-Ala-His-D-Phe-Arg-Trp-Cys)-NH2 (peptide) | 201 nM | –
19 | Hydantoin(C(O)-(Gly-Gly))-c(Cys-Glu-His-D-Phe-Arg-Trp-Cys)-NH2 (peptide) | > 10000 nM | –
20 | Hydantoin(C(O)-(Leu-Nle))-c(Cys-D-Ala-His-D-Phe-Arg-Trp-Cys)-NH2 (peptide; unit assumed) | – | cAMP EC50 (hMC3-R (human)): 9.68 nM; cAMP EC50 (hMC4-R (human)): 1.83 nM
21 | Hydantoin(C(O)-(Nle-Gly))-c(Cys-D-Ala-His-D-Phe-Arg-Trp-Pen)-NH2 (peptide) | 352 nM | –
22 | Hydantoin(C(O)-(Nle-Gly))-c(Cys-Glu-His-D-Phe-Arg-Trp-Cys)-NH2 (peptide) | > 10000 nM | –
23 | Hydantoin(C(O)-(Val-Nle))-c(Cys-D-Ala-His-D-Phe-Arg-Trp-Cys)-NH2 (peptide; unit assumed) | – | cAMP EC50 (hMC3-R (human)): 4.61 nM; cAMP EC50 (hMC4-R (human)): 0.977 nM
24 | Nle-c(Asp-His-D-2-Nal-Arg-Trp-Lys)-β-Ala-Tyr-Gly-Arg-Lys-Lys-Arg-Arg-Gln-Arg-Arg-Arg-NH2 (peptide; in nM (unit assumed)) | – | cAMP Kb (hMC3-R (human)): 207; cAMP Kb (hMC4-R (human)): 18.5
25 | c[Hydantoin(C(O)-(Glu-D-Ala))-His-D-Phe-Arg-Trp-Lys]-NH2 (peptide; unit assumed) | – | cAMP EC50 (hMC3-R (human)): 22.3 nM; cAMP EC50 (hMC4-R (human)): 3.62 nM
26 | c[Hydantoin(C(O)-(Ile-Cys))-D-Ala-His-D-Phe-Arg-Trp-Cys]-NH2 (peptide; unit assumed) | – | cAMP EC50 (hMC3-R (human)): 8.51 nM; cAMP EC50 (hMC4-R (human)): 1.85 nM
